Test results published in the Human Domainome abundance scans (Beltran et al. 2025).
± gives the uncertainty stated by the source.

B1: Double-stranded RNA-specific adenosine deaminase, residues 296 to 358; numbered along this chain, P55265 (parent)
chain: MAEIKEKICDYLFNVSDSSALNLAKNIGLTKARDINAVLIDMERQGDVYRQGTTPPIWHLTDK
B2: Gamma-crystallin D, residues 90 to 170; numbered along this chain, P07320 (parent)
chain: IRLYEREDYRGQMIEFTEDCSCLQDRFRFNEIHSLNVLEGSWVLYELSNYRGRQYLLMPGDYRRYQDWGATNARVGSLRRV

Variants of: B1
Experiment: abundance fitness (aPCA) (normalised: wild type 0, dead -1); higher = more abundant; growth selection in yeast, the domain comes from the species named
Conditions: Homo sapiens

Abundance fitness of substitutions, site by site:
E3: A -0.369 ± 0.074; L -0.552 ± 0.055; G -0.18 ± 0.056; F -0.561 ± 0.11; P -0.383 ± 0.077; V -0.471 ± 0.081; Q -0.368 ± 0.11; W -0.147 ± 0.054; H -0.285 ± 0.075; Y -0.298 ± 0.059; M -0.621 ± 0.15; I -0.457 ± 0.098; S -0.213 ± 0.045; N -0.196 ± 0.078; K -0.21 ± 0.061; R -0.334 ± 0.05; T -0.159 ± 0.059
E6: P -0.831 ± 0.13; H -0.557 ± 0.1; L -0.57 ± 0.068; N -0.428 ± 0.12; K 0.056 ± 0.23; V -0.589 ± 0.069; C -0.654 ± 0.21; G -0.246 ± 0.056; R -0.338 ± 0.056; S -0.39 ± 0.062; D -0.517 ± 0.15; Y -0.832 ± 0.26; I -0.886 ± 0.15; A -0.148 ± 0.055; Q -0.03 ± 0.087; W -0.793 ± 0.088; M -0.25 ± 0.1; F -0.839 ± 0.27
C9: H -0.125 ± 0.12; A -0.143 ± 0.05; D -0.678 ± 0.14; T 0.119 ± 0.054; F 0.086 ± 0.11; E 0.002 ± 0.053; R 0.233 ± 0.037; W -0.018 ± 0.055; V 0.217 ± 0.052; G -0.389 ± 0.036; Q -0.105 ± 0.075; N 0.077 ± 0.12; K 0.278 ± 0.052; L 0.168 ± 0.046; I 0.338 ± 0.085; M 0.042 ± 0.062; Y 0.09 ± 0.077
M1: D -0.359 ± 0.11; Y -0.327 ± 0.26; A -0.418 ± 0.13; C -0.545 ± 0.3; S -0.034 ± 0.066; Q 0.435 ± 0.32; E 0.235 ± 0.13; K 0.181 ± 0.073; W 0.017 ± 0.06; F 0.108 ± 0.2; R 0.151 ± 0.059; G -0.263 ± 0.084; L -0.29 ± 0.096
K7: R -0.266 ± 0.062; C -1.01 ± 0.12; D -0.533 ± 0.14; F -0.543 ± 0.088; V -0.641 ± 0.092; Y -0.796 ± 0.085; W -0.471 ± 0.27; S -0.467 ± 0.067; L -0.402 ± 0.067; I -0.779 ± 0.11; M -0.055 ± 0.15; A -0.348 ± 0.066; N -0.534 ± 0.08; P -0.906 ± 0.27; G -0.775 ± 0.086; Q -0.938 ± 0.39
K5: G -0.616 ± 0.084; W -0.465 ± 0.077; A -0.428 ± 0.058; R -0.118 ± 0.052; M -0.574 ± 0.082; C -0.924 ± 0.15; T -0.601 ± 0.077; E -0.666 ± 0.22; I -0.512 ± 0.081; Q -0.28 ± 0.065; Y -0.79 ± 0.11; F -0.449 ± 0.066; V -0.652 ± 0.073; P -0.486 ± 0.069; H -0.68 ± 0.1; N -0.555 ± 0.097
I4: Y -0.398 ± 0.063; N -0.327 ± 0.059; E -0.287 ± 0.075; W -0.666 ± 0.07; R -0.387 ± 0.043; C -0.995 ± 0.092; Q -0.327 ± 0.068; T -0.24 ± 0.054; G -0.435 ± 0.043; D -0.121 ± 0.058; V -0.293 ± 0.042; L 0.146 ± 0.03; A -0.37 ± 0.048; S -0.311 ± 0.04; F -0.649 ± 0.082; M -0.217 ± 0.056; P -0.551 ± 0.061; K -0.2 ± 0.084; H -0.227 ± 0.064
A2: P -0.335 ± 0.078; W -0.18 ± 0.064; T -0.152 ± 0.086; D 0.207 ± 0.099; F -0.471 ± 0.21; R 0.004 ± 0.048; L -0.096 ± 0.06; S -0.024 ± 0.063; K 0.168 ± 0.075; H -0.151 ± 0.18; V -0.247 ± 0.059; E 0.3 ± 0.057; C -0.393 ± 0.086; Q 0.023 ± 0.092; N 0.051 ± 0.078; M 0.045 ± 0.071
D10: I -0.502 ± 0.16; M -0.44 ± 0.074; F -0.653 ± 0.17; S 0.05 ± 0.045; G -0.514 ± 0.073; W -0.297 ± 0.073; L -0.568 ± 0.053; E 0 ± 0.075; Q 0.051 ± 0.058; N 0.085 ± 0.077; T -0.157 ± 0.053; R 0.051 ± 0.04; A -0.021 ± 0.041; H 0.011 ± 0.1
I8: F -0.506 ± 0.19; H -0.766 ± 0.2; Q -0.137 ± 0.11; N -0.543 ± 0.4; W -1.3 ± 0.38; P -0.455 ± 0.18; R -0.374 ± 0.11; S -0.304 ± 0.15; A -0.564 ± 0.13; V -0.649 ± 0.29; L -0.903 ± 0.17; K -0.568 ± 0.12; T -0.713 ± 0.14; D 0.302 ± 0.3; G -0.471 ± 0.096; E -0.374 ± 0.074

Variants of: B2
Experiment: as above
Conditions: Homo sapiens

Abundance fitness: each site, then its substitutions
R74: A -0.015 ± 0.085; L -0.002 ± 0.071; G -0.011 ± 0.07; S -0.011 ± 0.078; P 0.005 ± 0.093; N 0.098 ± 0.21; Y -0.092 ± 0.26; W -0.029 ± 0.11; V 0.028 ± 0.096; F -0.023 ± 0.13; D 0.018 ± 0.21; M -0.224 ± 0.068; Q -0.02 ± 0.098; E 0.132 ± 0.14; K -0.134 ± 0.15; C 0.012 ± 0.16
A70: Y -0.033 ± 0.2; H 0.045 ± 0.15; I 0.024 ± 0.16; M 0.109 ± 0.14; P 0.047 ± 0.086; F 0.048 ± 0.11; C 0.074 ± 0.072; D 0.18 ± 0.13; G -0.047 ± 0.061; W 0.032 ± 0.06; L 0.045 ± 0.063; Q -0.032 ± 0.1; R 0.095 ± 0.049; E 0.165 ± 0.1; V 0.044 ± 0.081; N 0.136 ± 0.46; S -0.025 ± 0.093
A73: V 0.066 ± 0.076; L 0.067 ± 0.07; S -0.023 ± 0.091; H 0.151 ± 0.13; R 0.121 ± 0.059; N 0.05 ± 0.23; E -0.012 ± 0.12; C 0.005 ± 0.14; F -0.173 ± 0.17; W 0.123 ± 0.064; D 0.104 ± 0.13; T 0.126 ± 0.11; G 0.004 ± 0.063; M 0.156 ± 0.059; Q 0.09 ± 0.089; Y 0.003 ± 0.13; P -0.175 ± 0.13
G69: S -0.019 ± 0.073; I -0.057 ± 0.15; W 0.045 ± 0.078; F -0.008 ± 0.17; Y 0.037 ± 0.26; R 0.141 ± 0.079; L 0.101 ± 0.085; M 0.24 ± 0.13; D -0.105 ± 0.17; N -0.011 ± 0.22; T 0.016 ± 0.098; E 0.193 ± 0.075; V 0.105 ± 0.061; C 0.084 ± 0.15; P -0.164 ± 0.081; Q 0.082 ± 0.15
V75: M -0.024 ± 0.12; P -0.011 ± 0.087; I -0.201 ± 0.24; A -0.017 ± 0.097; E -1.04 ± 0.3; F -0.037 ± 0.18; N -0.205 ± 0.19; Q -0.145 ± 0.075; G -0.024 ± 0.073; D -0.988 ± 0.25; Y -0.001 ± 0.23; K -0.683 ± 0.25; W -0.131 ± 0.11; R -0.863 ± 0.14; T -0.206 ± 0.13; H -0.742 ± 0.43; C -0.065 ± 0.093
R79: M 0.086 ± 0.22; G -0.032 ± 0.1; P -0.93 ± 0.17; Q 0.049 ± 0.13; K -0.048 ± 0.14; Y -0.153 ± 0.19; I -0.175 ± 0.19; T -0.117 ± 0.11; S 0.068 ± 0.093; E 0.113 ± 0.16; D -0.552 ± 0.32; F -0.214 ± 0.12; W -0.36 ± 0.11; C -0.355 ± 0.39; N -0.316 ± 0.3; A 0.096 ± 0.097
S77: L -0.819 ± 0.14; R -1.01 ± 0.17; G -0.367 ± 0.072; C -0.28 ± 0.17; Q -1.05 ± 0.42; A -0.168 ± 0.087; V -1.13 ± 0.26; W -1.01 ± 0.29; P -1.04 ± 0.29; E -0.868 ± 0.31; F -0.879 ± 0.45; K -0.654 ± 0.35; D -1.03 ± 0.31; T -0.921 ± 0.3
V81: A -0.093 ± 0.43; I -0.054 ± 0.15; L 0.081 ± 0.37
L78: W -0.011 ± 0.07; P -0.708 ± 0.2; S -0.38 ± 0.091; Q -0.908 ± 0.5; R -0.893 ± 0.11; I 0.061 ± 0.17; E -0.873 ± 0.34; C 0.157 ± 0.13; M 0.126 ± 0.11; G -0.565 ± 0.09; K -1.12 ± 0.45; H -0.426 ± 0.18
T71: Y -0.201 ± 0.25; H 0.05 ± 0.18; C 0.008 ± 0.12; A 0.029 ± 0.11; F -0.044 ± 0.16; K -0.003 ± 0.16; I 0.043 ± 0.17; N 0.054 ± 0.32; G -0.014 ± 0.074; L 0.04 ± 0.096; P -0.049 ± 0.13; M -0.125 ± 0.15; W 0.001 ± 0.1; V -0.103 ± 0.11
G76: S -0.027 ± 0.096; D -0.068 ± 0.099; R 0.024 ± 0.076; A 0.011 ± 0.074; W -0.441 ± 0.14; H 0.11 ± 0.16; K -0.112 ± 0.14; Y -0.221 ± 0.16; T -0.109 ± 0.12; C -0.287 ± 0.13; N -0.125 ± 0.2; M 0.111 ± 0.16; E 0.008 ± 0.11
N72: R 0.026 ± 0.054; S 0.051 ± 0.083; D -0.016 ± 0.17; M 0.131 ± 0.11; W 0.233 ± 0.067; P 0.03 ± 0.076; C -0.078 ± 0.12; H -0.083 ± 0.12; L 0.149 ± 0.066; V 0.065 ± 0.058; K -0.065 ± 0.12; Y 0.173 ± 0.14; Q 0.03 ± 0.11; F 0.118 ± 0.12; G -0.001 ± 0.078; A -0.08 ± 0.1; I 0.21 ± 0.32
